What all share (assay): high-throughput RNA pulldown from lysate on Ni-NTA beads; HRP: 50 mM Tris pH 8, 150 mM NaCl, 1 mM beta-mercaptoethanol, 50 ug/ml BSA, 3 ug/ml yeast RNA, 0.5% heparin; ITC and FP: Tris pH 8, 200 mM KCl, 5% glycerol; MST: 50 mM Tris pH 8, 200 mM NaCl, 1 mM DTT, BSA, heparin, 0.05% Tween 20
Holding throughout (conditions): tags: N-terminal His-eGFP

Data set [1] addresses T1, GFP-9S library array, motif 4 ND N98F;D124K (synthetic construct, N98F;D124K).
T1 chain: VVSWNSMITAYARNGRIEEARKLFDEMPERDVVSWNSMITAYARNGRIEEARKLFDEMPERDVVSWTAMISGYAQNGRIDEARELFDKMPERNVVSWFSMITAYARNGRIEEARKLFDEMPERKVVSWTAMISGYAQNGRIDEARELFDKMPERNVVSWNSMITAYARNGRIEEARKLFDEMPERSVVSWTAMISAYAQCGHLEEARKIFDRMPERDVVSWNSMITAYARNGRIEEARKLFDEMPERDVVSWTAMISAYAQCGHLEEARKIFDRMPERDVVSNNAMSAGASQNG

The target in data set [2] is T2, GFP-9S library array, motif 4 ND N98P;D124T (synthetic construct, N98P;D124T).
T2 chain: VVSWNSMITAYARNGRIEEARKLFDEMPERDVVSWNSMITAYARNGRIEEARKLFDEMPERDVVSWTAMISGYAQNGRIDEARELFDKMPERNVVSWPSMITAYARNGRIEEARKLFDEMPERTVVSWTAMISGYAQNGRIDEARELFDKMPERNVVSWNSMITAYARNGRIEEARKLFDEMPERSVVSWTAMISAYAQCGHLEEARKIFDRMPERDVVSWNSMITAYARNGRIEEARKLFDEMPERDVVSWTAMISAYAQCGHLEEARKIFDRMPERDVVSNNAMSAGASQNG

Data set [3] has as its target T3, GFP-9S library array, motif 4 ND N98C;D124N (synthetic construct, N98C;D124N).
T3 chain: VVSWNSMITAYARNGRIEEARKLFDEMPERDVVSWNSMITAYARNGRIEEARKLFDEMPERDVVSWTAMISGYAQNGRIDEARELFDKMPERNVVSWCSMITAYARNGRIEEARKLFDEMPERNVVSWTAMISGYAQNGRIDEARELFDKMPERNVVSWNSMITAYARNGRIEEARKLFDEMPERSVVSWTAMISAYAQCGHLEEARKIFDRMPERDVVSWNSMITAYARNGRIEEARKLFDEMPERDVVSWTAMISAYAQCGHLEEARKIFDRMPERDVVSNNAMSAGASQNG

Data set [4] has as its target T4, GFP-9S library array, motif 4 ND N98D;D124H (synthetic construct, N98D;D124H).
T4 chain: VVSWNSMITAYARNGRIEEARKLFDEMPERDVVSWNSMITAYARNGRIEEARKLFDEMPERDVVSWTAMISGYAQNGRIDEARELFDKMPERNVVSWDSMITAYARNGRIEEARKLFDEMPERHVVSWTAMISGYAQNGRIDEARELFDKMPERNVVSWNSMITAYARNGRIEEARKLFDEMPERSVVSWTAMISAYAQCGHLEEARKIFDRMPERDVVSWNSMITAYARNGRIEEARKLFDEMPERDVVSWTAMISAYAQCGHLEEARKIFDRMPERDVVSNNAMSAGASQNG

Data set [5] deals with T5, GFP-9S library array, motif 4 ND N98Y;D124I (synthetic construct, N98Y;D124I).
T5 chain: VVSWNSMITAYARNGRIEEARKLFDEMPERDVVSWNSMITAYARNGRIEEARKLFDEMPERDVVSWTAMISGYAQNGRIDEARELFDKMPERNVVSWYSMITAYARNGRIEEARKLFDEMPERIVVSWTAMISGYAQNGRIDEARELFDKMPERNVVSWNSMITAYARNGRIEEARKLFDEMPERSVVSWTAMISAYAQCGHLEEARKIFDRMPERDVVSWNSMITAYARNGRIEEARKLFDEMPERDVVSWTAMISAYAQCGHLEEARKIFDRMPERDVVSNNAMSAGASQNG

Turning to AUUAAACGUGA (ssRNA) [IR-rpoA-A], the Kd amounted to 121 nM in data set [1] (label: 5' IRDye 800CW); 405 nM in data set [2] (label: 5' IRDye 800CW); 45 nM in data set [3] (label: 5' IRDye 800CW); 311 nM in data set [4] (label: 5' IRDye 800CW); 347 nM in data set [5] (label: 5' IRDye 800CW).

In the case of AUUAGACGUGA (ssRNA) [Cy5-rpoA-G], the Kd amounted to 63.6 nM in data set [1] (label: 5' Cy5); 177 nM in data set [2] (label: 5' Cy5); 346 nM in data set [3] (label: 5' Cy5); 120 nM in data set [4] (label: 5' Cy5); 112 nM in data set [5] (label: 5' Cy5).

On to AUUACACGUGA (ssRNA) [Cy5-rpoA], for which the Kd came to 160 nM in data set [1] (label: 5' Cy5); 176 nM in data set [2] (label: 5' Cy5); 213 nM in data set [3] (label: 5' Cy5); 123 nM in data set [4] (label: 5' Cy5); 109 nM in data set [5] (label: 5' Cy5).

Regarding AUUAUACGUGA (ssRNA) [IR-rpoA-U], the Kd in data set [1] (label: 5' IRDye 800CW) turned out to be 667 nM; in data set [2] (label: 5' IRDye 800CW), 179 nM; in data set [3] (label: 5' IRDye 800CW), 152 nM; in data set [4] (label: 5' IRDye 800CW), 182 nM; in data set [5] (label: 5' IRDye 800CW), 340 nM.

For orientation: Kd means the concentration at which binding is half-saturated. A higher Kd goes with a looser complex.

(Values after PMC8809517, “Cofactor-independent RNA editing by a synthetic S-type PPR protein”.)
